Target: T1, purified recombinant 191P4D12 (ECD amino acids 1-348) (human, UniProt Q96NY8 32-348)
T1 construct: Range as printed
T1 sequence: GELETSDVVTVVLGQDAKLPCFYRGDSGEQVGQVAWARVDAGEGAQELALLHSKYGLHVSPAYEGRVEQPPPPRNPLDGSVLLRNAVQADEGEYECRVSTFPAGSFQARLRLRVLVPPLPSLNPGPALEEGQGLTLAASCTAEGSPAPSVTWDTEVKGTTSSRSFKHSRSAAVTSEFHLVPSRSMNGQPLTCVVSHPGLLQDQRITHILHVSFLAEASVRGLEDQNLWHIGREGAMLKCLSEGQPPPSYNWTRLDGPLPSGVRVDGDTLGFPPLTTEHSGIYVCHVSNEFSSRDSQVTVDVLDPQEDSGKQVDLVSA
Assay: SPR (Biacore), antibody captured by anti-human Fc, 191P4D12 ECD as analyte
Experimental: The affinity of Ha22-2(2,4)6.1 MAb and Ha22-2(2,4)6.1vcMMAE to purified recombinant 191P4D12 (ECD amino acids 1-348) was performed by Surface Plasmon Resonance (SPR) (BIAcore). Briefly, goat-anti-human Fcγ polyclonal Abs (Jackson Immuno Research Labs, Inc.) were covalently immobilized on the surface of a CM5 sensor chip (Biacore). Purified Ha22-2(2,4)6.1 MAb or Ha22-2(2,4)6.1vcMMAE were then captured on the surface of said chip. On average, approximately 300 RUs of test Ha22-2(2,4)6.1 MAb or Ha22-2(2,4)6.1vcMMAE was captured in every cycle. Subsequently, a series of five (5) to six (6) dilutions of recombinant 191P4D12 (ECD amino acids 1-348) ranging from 1 nM to 100 nM was injected over such surface to generate binding curves (sensograms) that were processed and globally fit to a 1:1 interaction model using BIAevaluation 3.2 and CLAMP software (Myszka and Morton, 1998) (FIG. 22). Table V summarizes association and dissociation rate constants as well as affinities of Ha22-2(2,4)6.1 MAb and Ha22-2(2,4)6.1 vcMMAE to recombinant 191P4D12 (ECD amino acids 1-348).

Kd: 0.016 µM
koff: 0.0058 s⁻¹
kon: 380000 M⁻¹ s⁻¹
B1: Ha22-2(2,4)6.1 MAb (antibody, human IgG1, kappa, V domains shown)
VH: EVQLVESGGGLVQPGGSLRLSCAASGFTFSSYNMNWVRQAPGKGLEWVSYISSSSSTIYYADSVKGRFTISRDNAKNSLSLQMNSLRDEDTAVYYCARAYYYGMDVWGQGTTVTVSS
VL: DIQMTQSPSSVSASVGDRVTITCRASQGISGWLAWYQQKPGKAPKFLIYAASTLQSGVPSRFSGSGSGTDFTLTISSLQPEDFATYYCQQANSFPPTFGGGTKVEIKR
notes: Fully human IgG1 kappa from XenoMouse; Used biotinylated in the Western blot; also called 191P4D12 MAb Ha22-2(2,4)6.1; Ha22-(2,4)6.1 MAb

Source: patent publication US20260034234A1 (AGENSYS, published 2026)
